{"source": "the RNAGym collection of RNA variant scans (doi:10.7554/elife.80360)", "parents": {"B1": {"name": "Twister Ribozyme (parent)", "chain": "AACACUGCCAAUGCCGGUCCCAAGCCCGGAUAAAAGUGGAGGGGGCGG"}}, "data": [{"variants_of": "B1", "assay": "self-cleavage, relative activity (ratio to wild type); higher = more cleavage; co-transcriptional", "values": [{"variant": "A30G", "self-cleavage": 0.952}, {"variant": "G29C G43C", "self-cleavage": 0.118}, {"variant": "G29C G43A", "self-cleavage": 0.119}, {"variant": "C27A G48U", "self-cleavage": 0.397}, {"variant": "C27A G48A", "self-cleavage": 0.275}, {"variant": "C27A G29U", "self-cleavage": 0.132}, {"variant": "C27A G29A", "self-cleavage": 0.382}, {"variant": "C27A G29C", "self-cleavage": 0.0808}, {"variant": "C26U G41A", "self-cleavage": 0.109}, {"variant": "C27G G42U", "self-cleavage": 0.0711}, {"variant": "G29A G45A", "self-cleavage": 0.724}, {"variant": "G29A G45U", "self-cleavage": 0.578}, {"variant": "A30C G48U", "self-cleavage": 0.759}, {"variant": "A30C G48C", "self-cleavage": 0.933}, {"variant": "C27U A40G", "self-cleavage": 0.119}, {"variant": "C27U A40C", "self-cleavage": 0.159}, {"variant": "C27U A40U", "self-cleavage": 0.164}, {"variant": "G28A G44U", "self-cleavage": 0.874}, {"variant": "G28A A35G", "self-cleavage": 0.575}, {"variant": "C27U U37C", "self-cleavage": 0.179}, {"variant": "C27U U37G", "self-cleavage": 0.342}, {"variant": "G29U A35U", "self-cleavage": 0.892}, {"variant": "C27G A33U", "self-cleavage": 0.0804}, {"variant": "C27G A33C", "self-cleavage": 0.0584}, {"variant": "G29U G44C", "self-cleavage": 0.858}, {"variant": "G29U G44A", "self-cleavage": 0.79}, {"variant": "C27A G47C", "self-cleavage": 0.183}, {"variant": "C26U G39U", "self-cleavage": 0.102}, {"variant": "C26U G39C", "self-cleavage": 0.0911}, {"variant": "C26U G44C", "self-cleavage": 0.172}, {"variant": "C27U G44U", "self-cleavage": 0.774}, {"variant": "G29A A33U", "self-cleavage": 0.759}, {"variant": "G29A A33C", "self-cleavage": 0.768}, {"variant": "A30C G36A", "self-cleavage": 0.164}, {"variant": "G29C G44A", "self-cleavage": 0.791}, {"variant": "G29C G44C", "self-cleavage": 0.696}, {"variant": "C27G U31A", "self-cleavage": 0.099}, {"variant": "C27G U31G", "self-cleavage": 0.0669}, {"variant": "G28C", "self-cleavage": 0.894}, {"variant": "G28U", "self-cleavage": 0.91}, {"variant": "G28A", "self-cleavage": 0.897}, {"variant": "C27U C46G", "self-cleavage": 0.914}, {"variant": "C27U C46U", "self-cleavage": 0.822}, {"variant": "G29A G38C", "self-cleavage": 0.7}, {"variant": "G29A G38A", "self-cleavage": 0.772}, {"variant": "G29U G41U", "self-cleavage": 0.521}, {"variant": "G29U G41A", "self-cleavage": 0.422}, {"variant": "G29C A33U", "self-cleavage": 0.579}, {"variant": "G29C A33G", "self-cleavage": 0.573}, {"variant": "C27G A35U", "self-cleavage": 0.0981}, {"variant": "C27G A35G", "self-cleavage": 0.108}, {"variant": "C27G A35C", "self-cleavage": 0.104}, {"variant": "G29C A30U", "self-cleavage": 1.1}, {"variant": "G29C A30G", "self-cleavage": 0.91}, {"variant": "G29A G39A", "self-cleavage": 0.381}, {"variant": "G29A G39C", "self-cleavage": 0.166}, {"variant": "C27G A34G", "self-cleavage": 0.124}, {"variant": "C27G A34U", "self-cleavage": 0.0972}, {"variant": "C27G A34C", "self-cleavage": 0.0686}, {"variant": "G29A G36U", "self-cleavage": 0.265}, {"variant": "C27A G45C", "self-cleavage": 0.144}, {"variant": "C27U A35U", "self-cleavage": 0.775}, {"variant": "C27U A35G", "self-cleavage": 0.271}, {"variant": "A30G A32U", "self-cleavage": 0.962}, {"variant": "A30G A32G", "self-cleavage": 1.02}, {"variant": "G29U A33U", "self-cleavage": 0.911}, {"variant": "G29U A33C", "self-cleavage": 0.821}, {"variant": "G29C G36C", "self-cleavage": 0.122}, {"variant": "G29C G36A", "self-cleavage": 0.188}, {"variant": "A30G G43A", "self-cleavage": 0.22}, {"variant": "G29A C46G", "self-cleavage": 0.838}, {"variant": "A30G G36A", "self-cleavage": 0.761}, {"variant": "A30G G36C", "self-cleavage": 0.422}, {"variant": "C27A G36U", "self-cleavage": 0.128}, {"variant": "C27A G36A", "self-cleavage": 0.121}, {"variant": "C27A G36C", "self-cleavage": 0.123}, {"variant": "G29U U37G", "self-cleavage": 0.418}, {"variant": "G29U G48C", "self-cleavage": 1.11}, {"variant": "G29A A30G", "self-cleavage": 0.892}, {"variant": "G29A A30U", "self-cleavage": 0.709}, {"variant": "G29A A30C", "self-cleavage": 0.865}, {"variant": "C26U A40U", "self-cleavage": 0.131}, {"variant": "C26U A40G", "self-cleavage": 0.0722}, {"variant": "C27A G41U", "self-cleavage": 0.0984}, {"variant": "C27A G41C", "self-cleavage": 0.152}, {"variant": "G29U G45A", "self-cleavage": 0.812}, {"variant": "G29U G45C", "self-cleavage": 0.294}, {"variant": "G29U G45U", "self-cleavage": 0.574}, {"variant": "G28U G48U", "self-cleavage": 0.809}, {"variant": "G28U G48C", "self-cleavage": 0.921}, {"variant": "G28U G48A", "self-cleavage": 0.726}, {"variant": "A30C A33G", "self-cleavage": 0.58}, {"variant": "G28C G43C", "self-cleavage": 0.149}, {"variant": "G28C G43A", "self-cleavage": 0.228}, {"variant": "G28A U31A", "self-cleavage": 0.904}, {"variant": "G28A U31G", "self-cleavage": 0.916}, {"variant": "A30C A34G", "self-cleavage": 0.326}, {"variant": "C27U G48C", "self-cleavage": 0.844}, {"variant": "G28A U37A", "self-cleavage": 0.465}, {"variant": "G28C A30U", "self-cleavage": 0.857}, {"variant": "C26U G38U", "self-cleavage": 0.201}, {"variant": "G28A A40C", "self-cleavage": 0.163}, {"variant": "G28A A40U", "self-cleavage": 0.125}, {"variant": "G28A A40G", "self-cleavage": 0.188}, {"variant": "G29A G41C", "self-cleavage": 0.22}, {"variant": "G29A G41A", "self-cleavage": 0.452}, {"variant": "C27U G43C", "self-cleavage": 0.135}, {"variant": "A30C G42U", "self-cleavage": 0.0949}, {"variant": "A30C G42A", "self-cleavage": 0.129}, {"variant": "G29A A34C", "self-cleavage": 0.282}, {"variant": "G29A A34U", "self-cleavage": 0.833}, {"variant": "G28C G45A", "self-cleavage": 0.552}, {"variant": "G28U A30U", "self-cleavage": 0.985}, {"variant": "C26U G36C", "self-cleavage": 0.129}, {"variant": "A30C G47C", "self-cleavage": 0.17}, {"variant": "G28A A33C", "self-cleavage": 0.873}, {"variant": "C27A A40C", "self-cleavage": 0.155}, {"variant": "C27G C46G", "self-cleavage": 0.1}, {"variant": "C27U U31C", "self-cleavage": 0.651}, {"variant": "C27U G38C", "self-cleavage": 0.644}, {"variant": "G29U A32U", "self-cleavage": 0.911}, {"variant": "G29U A32G", "self-cleavage": 0.781}, {"variant": "G28U C46U", "self-cleavage": 0.922}, {"variant": "G28C G29A", "self-cleavage": 1}, {"variant": "G28C G36U", "self-cleavage": 0.101}, {"variant": "G29A U37C", "self-cleavage": 0.444}, {"variant": "G29C G41A", "self-cleavage": 0.108}, {"variant": "G29C G41U", "self-cleavage": 0.125}, {"variant": "A30G G42A", "self-cleavage": 0.413}, {"variant": "A30G G42C", "self-cleavage": 0.571}, {"variant": "A30C G39A", "self-cleavage": 0.189}, {"variant": "G28A G36A", "self-cleavage": 0.397}, {"variant": "G28A G36U", "self-cleavage": 0.15}, {"variant": "G28A G29C", "self-cleavage": 0.71}, {"variant": "G28A G29U", "self-cleavage": 0.9}, {"variant": "G28C G38C", "self-cleavage": 0.531}, {"variant": "G28C G38U", "self-cleavage": 0.64}, {"variant": "G29U C46A", "self-cleavage": 0.876}, {"variant": "C27A G28U", "self-cleavage": 0.37}, {"variant": "C27A G28C", "self-cleavage": 0.323}, {"variant": "G29C U31C", "self-cleavage": 0.999}, {"variant": "C27A A33G", "self-cleavage": 0.294}, {"variant": "C27A A33C", "self-cleavage": 0.245}, {"variant": "C27A A33U", "self-cleavage": 0.334}, {"variant": "C27G G45U", "self-cleavage": 0.0905}, {"variant": "C27G G45C", "self-cleavage": 0.0921}, {"variant": "C27G G45A", "self-cleavage": 0.0977}, {"variant": "C27A A30G", "self-cleavage": 0.529}, {"variant": "G29A A35C", "self-cleavage": 0.762}, {"variant": "G29A A35U", "self-cleavage": 0.887}, {"variant": "A30G G41U", "self-cleavage": 0.772}, {"variant": "A30G G41A", "self-cleavage": 0.666}, {"variant": "C26U G45C", "self-cleavage": 0.0973}, {"variant": "C26U G45A", "self-cleavage": 0.232}, {"variant": "G28C G44C", "self-cleavage": 0.666}, {"variant": "G28C G44U", "self-cleavage": 0.738}, {"variant": "G29U G38C", "self-cleavage": 0.778}, {"variant": "G29U G38A", "self-cleavage": 0.775}, {"variant": "G29A A32G", "self-cleavage": 0.84}, {"variant": "G29U G36A", "self-cleavage": 0.481}, {"variant": "C27G A30U", "self-cleavage": 0.0941}, {"variant": "G29C A35G", "self-cleavage": 0.544}, {"variant": "G29C A35U", "self-cleavage": 0.885}, {"variant": "G29C A35C", "self-cleavage": 0.701}, {"variant": "C27U G45A", "self-cleavage": 0.819}, {"variant": "C27U G45C", "self-cleavage": 0.354}, {"variant": "G28U G38U", "self-cleavage": 0.766}]}]}
